Experimental findings from paper PMC5457915, “Real-time analysis of the binding of fluorescent VEGF165a to VEGFR2 in living cells: Effect of receptor tyrosine kinase inhibitors and fate of internalized agonist-receptor complexes” (Biochemical Pharmacology, 2017) are described below.

In this assay the target is VEGFR2 (Homo sapiens, UniProt P35968). Briefly: NFAT luciferase reporter gene assay in HEK293T ReLuc2P cells stably expressing wild-type VEGFR2. It counts as cell-based. Also on record: in cells expressing the wild-type VEGFR2 receptor; host or cells: HEK293T ReLuc2P suspension cell line. Particulars: cells expressing the wild-type VEGFR2 receptor; n = 4. The method, then:
NFAT luciferase reporter gene activity was monitored in a HEK293T ReLuc2P (Promega Corporation, USA) suspension cell line stably expressing VEGFR2 as described previously.
NFAT reporter genes: All data obtained from the NFAT luciferase reporter gene assays were normalised to 10 nM VEGF165a responses and fitted with non linear regression using the equation as described previously.

Sequence of VEGFR2 (P35968 20-1356): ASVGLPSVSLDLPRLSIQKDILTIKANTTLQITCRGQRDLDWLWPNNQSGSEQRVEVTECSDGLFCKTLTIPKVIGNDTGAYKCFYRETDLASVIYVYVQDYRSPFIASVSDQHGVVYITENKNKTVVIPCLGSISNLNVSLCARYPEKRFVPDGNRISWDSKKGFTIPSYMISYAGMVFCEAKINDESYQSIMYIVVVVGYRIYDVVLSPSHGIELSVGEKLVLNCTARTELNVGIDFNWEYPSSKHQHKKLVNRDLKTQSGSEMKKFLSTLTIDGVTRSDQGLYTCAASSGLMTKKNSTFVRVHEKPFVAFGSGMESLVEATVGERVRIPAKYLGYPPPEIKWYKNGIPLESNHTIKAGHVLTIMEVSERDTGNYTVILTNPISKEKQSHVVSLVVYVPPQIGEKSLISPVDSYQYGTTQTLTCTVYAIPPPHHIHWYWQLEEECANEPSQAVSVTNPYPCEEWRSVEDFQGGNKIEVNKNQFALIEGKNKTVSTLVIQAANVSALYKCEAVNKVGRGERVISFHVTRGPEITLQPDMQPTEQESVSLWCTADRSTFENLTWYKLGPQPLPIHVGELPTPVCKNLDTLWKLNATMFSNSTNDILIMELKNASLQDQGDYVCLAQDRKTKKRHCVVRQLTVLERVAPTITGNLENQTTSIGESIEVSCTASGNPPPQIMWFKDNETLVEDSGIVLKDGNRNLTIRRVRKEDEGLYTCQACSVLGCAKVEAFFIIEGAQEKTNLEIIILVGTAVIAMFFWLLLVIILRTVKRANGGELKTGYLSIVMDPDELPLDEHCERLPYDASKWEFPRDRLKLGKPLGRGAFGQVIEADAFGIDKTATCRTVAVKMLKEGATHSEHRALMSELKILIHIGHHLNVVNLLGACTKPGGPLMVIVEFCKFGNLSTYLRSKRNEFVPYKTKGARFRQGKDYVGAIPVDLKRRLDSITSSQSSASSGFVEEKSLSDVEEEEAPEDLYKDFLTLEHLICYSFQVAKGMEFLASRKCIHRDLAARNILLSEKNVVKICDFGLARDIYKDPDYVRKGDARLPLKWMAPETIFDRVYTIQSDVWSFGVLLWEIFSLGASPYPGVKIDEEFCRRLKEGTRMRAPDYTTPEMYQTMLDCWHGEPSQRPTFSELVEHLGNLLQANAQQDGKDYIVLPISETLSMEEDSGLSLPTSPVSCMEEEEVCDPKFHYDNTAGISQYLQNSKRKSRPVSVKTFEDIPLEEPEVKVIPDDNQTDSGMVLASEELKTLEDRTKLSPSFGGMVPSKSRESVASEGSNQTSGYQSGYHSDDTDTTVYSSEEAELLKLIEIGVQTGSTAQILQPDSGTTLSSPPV

B1: non-fluorescent VEGF165a: unlabeled VEGF165a purified in an identical manner to VEGF165a-TMR, with modified N-terminus (protein)
chain: CDNAPMAEGGGQNHHEVVKFMDVYQRSYCHPIETLVDIFQEYPDEIEYIFKPSCVPLMRCGGCCNDEGLECVPTEESNITMQIMRIKPHQGQHIGEMSFLQHNKCECRPKKDRARQENPCGPCSERRKHLFVQDPQTCKCSCKNTDSRCKARQLELNERTCRCDKPRR
modifications: free N-terminal Cys (unlabeled); HEK293T-expressed, glycosylated; disulfide-linked antiparallel homodimer
On to B1, for which the “pEC50, NFAT reporter gene agonist activity” value was determined as 9.72 ± 0.09.
